Measurements published in paper PMC12462500.

Target: SNAP-tagged human melanocortin-4 receptor (SNAP-MC4R) (human) (UniProt P32245)
Chain of UniProt P32245 (P32245 whole entry): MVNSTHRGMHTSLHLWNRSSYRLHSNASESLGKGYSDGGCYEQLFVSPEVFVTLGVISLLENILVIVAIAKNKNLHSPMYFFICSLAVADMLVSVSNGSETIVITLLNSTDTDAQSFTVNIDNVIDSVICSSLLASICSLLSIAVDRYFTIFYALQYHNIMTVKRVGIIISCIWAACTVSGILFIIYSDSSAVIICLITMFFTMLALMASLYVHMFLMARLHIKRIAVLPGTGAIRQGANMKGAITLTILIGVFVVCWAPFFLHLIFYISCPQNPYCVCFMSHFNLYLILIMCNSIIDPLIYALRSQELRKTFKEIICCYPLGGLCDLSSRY

EC50 of α-MSH-stimulated cAMP production (Epac-S^H187 FRET biosensor, HEK293), MC4R + mock: 4.5 nM
EC50 of α-MSH-stimulated cAMP production (Epac-S^H187 FRET biosensor, HEK293), MC4R co-expressed with MRAP2 (1 + 1 or 1 + 4): 1.3 nM
Substance: α-MSH (peptide)
